Assay results from patent US20240309095A1 (Incyte, published 2024).
Numbering of substitutions follows the chain as printed.

T1: human B7-H4 (purified monomeric recombinant human protein, ACRO biosystems) (human, UniProt Q7Z7D3 29-258, limits assumed, chemically biotinylated (EZ-Link NHS-LC-Biotin) in the yeast display and competition experiments; non-biotinylated in SPR)
T1 construct: Bought recombinant monomeric protein; also called B7x; B7S1
T1 sequence: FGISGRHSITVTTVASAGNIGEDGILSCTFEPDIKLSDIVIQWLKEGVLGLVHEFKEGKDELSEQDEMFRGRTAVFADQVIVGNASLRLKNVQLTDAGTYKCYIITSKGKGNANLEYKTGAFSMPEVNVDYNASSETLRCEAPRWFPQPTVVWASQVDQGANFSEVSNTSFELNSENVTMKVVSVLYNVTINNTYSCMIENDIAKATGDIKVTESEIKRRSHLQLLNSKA

B1: A06 scFv-Fc (scFv, V domains shown)
VH: EVQLVESGGGVVQPGRSLRLSCAASGFTFGDRAMNWVRQAPGKGLEWVSAISGTGATTYYADSVKGRFTISRDNSKNTLYLQMNSLRAEDTAVYYCARKRWYGMDVWGQGTTVTVSS
VL: SYELTQPPSVSVAPGKTARITCGGNNIVTKSVHWYQQKPGQAPVLVVYDDSDRPSGIPERFSGSNSGNTATLTISRVEAGDEADYYCQVWDRGMIFGTGTKLTVL
notes: Tested as scFv-Fc fusion (human IgG1 Fc, vector pDNL9) in crude yeast supernatant; Combo 1 library
B2: B07 scFv-Fc (scFv, V domains shown)
VH: B1 VH with T54S
VL: B1 VL with V28G, T29S
notes: Tested as scFv-Fc fusion (human IgG1 Fc, vector pDNL9) in crude yeast supernatant; Combo 2 library
B3: Parental (H6.1) scFv-Fc (scFv, V domains shown)
VH: B1 VH with G30S, D31S, R32Y, A33S, T54S, A56G, T57S
VL: SYELTQPPSVSVAPGKTARITCGGNNIGSKSVHWYQQKPGQAPVLVVYDDSDRPSGIPERFSGSNSGNTATLTISRVEAGDEADYYCQVWDSRTYVFGTGTKLTVL
notes: Expressed with the 24 clones as scFv-Fc fusion (human IgG1 Fc) in yeast for SPR; also called parental antibody; parental molecule
B4: A12 scFv-Fc (scFv, V domains shown)
VH: B1 VH with G30D, D31N, G53S, T54S, A56S, T58M
VL: B3 VL
notes: as for B2
B5: A07 scFv-Fc (scFv, V domains shown)
VH: B1 VH with G30S, D31S, A33S, T54S, A56S, T58V
VL: B3 VL
notes: as for B2
B6: B05 scFv-Fc (scFv, V domains shown)
VH: B1 VH with F27L, G30S, D31S
VL: B1 VL with V28G, T29S, S31M
notes: as for B1
B7: B02 scFv-Fc (scFv, V domains shown)
VH: B1 VH with G30S, D31S, A33S, T54S, A56S, T58V
VL: B3 VL with S29V, P54S, S55P
notes: as for B1
B8: B09 scFv-Fc (scFv, V domains shown)
VH: B1 VH with F29Y, G30S, D31S, G53S, T54S, A56T
VL: B1 VL with V28G, T29S
notes: as for B2
B9: A11 scFv-Fc (scFv, V domains shown)
VH: B1 VH with G30S, D31S, A33S, T54S, A56S, T58V
VL: B1 VL with V28G, T29S
notes: as for B2
B10: A02 scFv-Fc (scFv, V domains shown)
VH: B1 VH with G30T, D31S, G53Y, T54E, A56R, T58Q
VL: B1 VL with V28G, T29S
notes: as for B1
B11: B01 scFv-Fc (scFv, V domains shown)
VH: B1 VH with G30S, G53Y, T54E, A56R, T58Q
VL: B3 VL with S29V
notes: as for B1
B12: B06 scFv-Fc (scFv, V domains shown)
VH: B1 VH with G30S, D31N, R32K, T54S
VL: B1 VL with V28G, T29V, S31A
notes: as for B1
B13: B11 scFv-Fc (scFv, V domains shown)
VH: B1 VH with G30T, D31S, T54S, T58A
VL: B1 VL with V28G, T29S
notes: as for B2
B14: A10 scFv-Fc (scFv, V domains shown)
VH: B1 VH with G30S, D31S, A33S, A56Y
VL: B1 VL with V28G, T29S
notes: as for B2
B15: A09 scFv-Fc (scFv, V domains shown)
VH: B1 VH with G30S, D31S, A33S, T54S, A56L, T58S
VL: B1 VL with V28G, T29S
notes: as for B2
B16: A04 scFv-Fc (scFv, V domains shown)
VH: B1 VH with G30S, D31S, A33S, T54S, A56D
VL: B1 VL with V28G, T29S
notes: as for B1
B17: B12 scFv-Fc (scFv, V domains shown)
VH: B1 VH with G30S, T57S
VL: B1 VL with V28G, T29S
notes: as for B2
B18: A08 scFv-Fc (scFv, V domains shown)
VH: B1 VH with G53S, T54S, A56T, T58S
VL: B1 VL with V28G, T29S
notes: as for B2
B19: A01 scFv-Fc (scFv, V domains shown)
VH: B1 VH with G30S, D31N, R32K, T54S
VL: B1 VL with V28G, T29S
notes: as for B1
B20: B04 scFv-Fc (scFv, V domains shown)
VH: B1 VH with T28S, G30S, D31S, I51V, T54S, A56S, T57G
VL: B1 VL with V28G, T29L
notes: as for B1
B21: A05 scFv-Fc (scFv, V domains shown)
VH: B1 VH with F29Y, G30S, D31S, T54S, A56S, T57N, T58A
VL: B1 VL with V28G, T29S
notes: as for B1
B22: B03 scFv-Fc (scFv, V domains shown)
VH: B1 VH with T54S, A56S, T57G
VL: B1 VL with V28G, T29M
notes: as for B1
B23: B08 scFv-Fc (scFv, V domains shown)
VH: B1 VH with G30S, G53A, T54S, T57S, T58R
VL: B1 VL with V28G, T29S
notes: as for B2
B24: G05 scFv-Fc (scFv, V domains shown)
VH: B1 VH with G30S, D31S, A33S, T54S, A56S, T58V
VL: B3 VL with N26K, I27L, S29D, S31W, D49E, S51V
notes: Tested as scFv-Fc fusion (human IgG1 Fc, vector pDNL9) in crude yeast supernatant; Combo 1 library; also called G5
B25: B10 scFv-Fc (scFv, V domains shown)
VH: B1 VH with G30S, D31T, A56D
VL: B3 VL with D91G, S92R, R93Y, T94Q, Y95M, V96I
notes: as for B2

Each binder was assayed against T1, human B7-H4 (purified monomeric …) (assay: SPR (Carterra LSA); scFv-Fc captured on anti-human IgG Fc, antigen injected; asterisk: reached minimum allowed dissociation rate; asterisk: kd at the minimum value allowed (10^-5 s^-1)).
Method: (§1) Finally, the affinity of the 24 clones was determined using high-throughput surface plasmon resonance (SPR). The supernatants were arrayed by non-covalent capture in a medium-density SPR chip previously coupled with an anti-human polyclonal antibody and (at least 4 replicates per clone). Non-biotinylated antigen was used for all affinity measurements and sensorgrams were fitted using a pseudo-first-order kinetic model (Lundström 1994). […] In fact, it is notable that the off rates for some of the tested antibodies are probably better than 10⁻⁵ (Table 7), as indicated by the bunching of matured antibodies at that value (Table 7)—such slow off rates are challenging to accurately measure using SPR. No affinity difference was observed between clones coming from one combo library versus the other.
The scFv from the final population (round 3, combo libraries) was bulk cloned into a yeast expression vector containing a human IgG1 Fc region to be expressed in the scFv-Fc format. For this, the scFv region was amplified by PCR, digested with BssHII and NheI restriction enzyme (New England Biolabs), and cloned into the pDNL9 vector, 92 clones were analyzed by Sanger sequencing and 24 of these plus the parental were expressed using S. cerevisiae strain YVH10 (ATCC MYA-4940). scFv-Fc fusions were expressed for 72 h at 20° C. in the presence of galactose. […]

koff [s⁻¹]	Binder
≤ 1e-05	B1

The binders below were run against T1, human B7-H4 (purified monomeric …) (assay: SPR (Carterra LSA); scFv-Fc captured on anti-human IgG Fc, antigen injected).
Method: as §1
(§2) The scFv from the final population (round 3, combo libraries) was bulk cloned into a yeast expression vector containing a human IgG1 Fc region to be expressed in the scFv-Fc format. For this, the scFv region was amplified by PCR, digested with BssHII and NheI restriction enzyme (New England Biolabs), and cloned into the pDNL9 vector, 92 clones were analyzed by Sanger sequencing and 24 of these plus the parental were expressed using S. cerevisiae strain YVH10 (ATCC MYA-4940). scFv-Fc fusions were expressed for 72 h at 20° C. in the presence of galactose. The Carterra LSA surface resonance system was used for the affinity measurements. Briefly, anti-Human IgG Fc (Southern Biotech, #2048-01) was covalently coupled to an HC30M chip following the manufacturer's protocols. Crude yeast supernatants containing the scFv-Fc fusions were arrayed on the chip.

KD fold-improvement [fold over parental]	Kd [nM]	koff [s⁻¹]	kon [M⁻¹ s⁻¹]	Binder
138	0.054	1.8e-05	330000	B2
1	7.43	0.0033	450000	B3
53	0.139	3.2e-05	230000	B4
27	0.277	4.7e-05	170000	B5
109	≤ 0.068	–	150000	B6
127	0.059	1.1e-05	180000	B7
63	0.118	2.5e-05	210000	B8
123	0.06	1.1e-05	190000	B9
188	0.039	1.1e-05	280000	B10
231	≤ 0.032	–	310000	B11
221	≤ 0.034	–	320000	B1
76	0.097	1.7e-05	170000	B12
109	0.068	1.2e-05	180000	B13
72	0.103	1.4e-05	140000	B14
100	0.074	1.1e-05	160000	B15
108	0.069	2.1e-05	310000	B16
89	0.084	2.8e-05	340000	B17
172	0.043	1.3e-05	310000	B18
33	0.224	3.7e-05	170000	B19
43	0.172	2.7e-05	160000	B20
63	0.117	2.2e-05	190000	B21
106	0.07	2.1e-05	300000	B22
64	0.117	1.8e-05	150000	B23
119	≤ 0.063	–	160000	B24
64	0.116	2.9e-05	260000	B25

What follows are binders tested against T1, human B7-H4 (purified monomeric …) (assay: SPR (Carterra LSA); scFv-Fc captured on anti-human IgG Fc, antigen injected; asterisk: reached minimum allowed dissociation rate).
Method: as §1, §2

koff [s⁻¹]	Binder
≤ 1e-05	B6
≤ 1e-05	B11
≤ 1e-05	B24
